In the supplement of paper PMC9170038:

Tested on: K4 kissing-loop RNA reporter
Experiment: apparent KD of K4 kissing-loop reporter; higher = weaker reporter binding
Conditions: Eterna round: R107; input ligand: FMN 200 uM
Method: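 RNA-MaP round R107: designed RNA switches with theophylline, tryptophan, arginine or FMN aptamers are transcribed on-chip within common flanks. They are titrated with a labelled K4 kissing-loop RNA reporter in RNA-MaP buffer (100 mM Tris pH 7.5, 80 mM KCl, 4 mM MgCl2), without ligand or with the indicated ligand. Median apparent KD per design.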
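Note: bound reporter read as fluorescence of individual clusters on recovered sequencing chips by microscopy, with normalized cluster intensities fitted with a binding model.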

Row | Sequence | apparent KD of K4 kissing-loop reporter [nM]
1 | UAGUCCUAGUGAUCCUUAUCAAGUGGUGGGCGAGGACCGGUACGGCCGCCACUCGAAUAUGCAGUGAUGUUGUAAUCCGGACAAU [Exclusion - Tryptophan A (Freestyle 11)] | 897
2 | GGAUAGGACAGAGGAUAUGGUGCUAGGCAAGAAUAACUUGUCUAGCAAUCCAUGAGGAGUGAUGUUCCAGAAGGCUGUCCUAUCG [FmnBX 3 - #SwitchBubble #StraticStem #DoubleMagnetSystem] | 440
3 | CCAUAUUCGUCGGCCGCCACUAUAAGCCAUCAUACAUUGGCUCUGUGAAAGUGAUGUUUUCUUGAUAGGACCGGGACUGUCAGCA [theeternabot_sameState_KL_Trp_B_24] | 975
4 | UUUUAAUGCAGUGAUGUUGCAAAUAAAACAGAGGAUAUGCAUGGAAGCAGAAGGCUGAUAUGUCGUACUUCGACAUAUUAUAUUU [JR_SSFMNA_Sub012] | 89.2
5 | AGUCCACUCUAAAGAGUGGACCUAAGGGAUACCAGUGAUGUUGGUCACCCUUGGCAGCCCAGGGCCCGGCGAAUAGCCGGGCCCA [#10 K4 Theophylline A Exclusion] | 125
6 | AAAUUUAAUAUAUUUAAUUAAUUAUGUGAUACCAGACAUUUAUAAGUCCCUUGGCAGCACAAUGCAGUGAUGUUGCAUAUAAUAA [JR_SSTheophyA_Sub012] | 64.3
7 | GUUAUGGACCUGGAUACCAGCUGGUACUAAGUGGGAAAAUGAAAGUGAUGUUUUCGUGCUAGCCCUUGGCAGCCAGCAACCCGCA [XTheo-B6] | 120
8 | UAUUAAUUGUCAGGAUAUCGAAAUCGAGUGAUGUUCGUAAAUUAAUUAUUAUUAAUAAUAUUUAUACGAGAAGGGACAUUAUUUA [JR_SSFMNB_Sub002] | 236
9 | AACGUUUUGUGAAGGAGCGCGAAAAGCAGUGAUGUUGCUUACUUACAAUUUAGAUUUAACACGCAGGUAGGUCGCACAAUACGUA [JR_SSArginiB_Sub016] | 252
10 | GGCAGUGAUGUUGCCAGUGGCGGAUGCGAAGGAGCGCGGUGAGACGCAGGUAGGUCGCGCAUUGAAAUUGCUGUCACUAGGAUGC [whbob_Ex_Arginine_A_2t129] | 272
11 | UUUUUUAAGAUGUCGACCAACCCGAAGCUACGAGGACCGGUACGGCCGCCACUCGCCAGUGAUGUUGGCGACUGGUGAAACCAUG [Ceesaror] | 133
12 | AAGGCCACGAGAAGGAGCGUGUUGUGGAGUGAUGUUCCAUUGUAGACCUAAGGUCUGCAAGCACAGGUAGGUCGCUCGUGGUCAA [whbob_SS_Arginine_B_2t149] | 127
13 | AAGGUUGUGCAUGGGAGUGAUGUUCCCAAGCAGGAUAUCGCUCACGCGAGAAGGGCUUGCACAACCGCUCAAGAAACUUGAGCAA [Omei KL FMN A SS C v6] | 129
14 | GGUAGCAUGGCGGCCGCCACUUCAAGUGGAGUGAUGUUCCGCGGCAUCGCGAAAGCGAUGCCUGGAAGGACCGGGCCAUGCUACC | 1090
15 | UGGAGGAAUCGACCUCGAAAGAGGAUGGAUACCAGAGAAGAAAUUCUCCCUUGGCAGCCAGUGAUGUUGGAACCUCCUAAAUAAA [#SwitchBubble 18 #K4Late] | 609
16 | GGAUAGGAUAGAGGAUAUGGGCUAGGCAAGAAUAACUUGUCUAGUAAAUCCAUGAGGAGUGAUGUUCCAGAAGGCUGUCCUAUCG [MatMod 2 - Jieux - Exclusion - FMN B] | 286
17 | CUACGACAGGAAGGAUAUCGUGUGGAGAGCAGUUAUUUAAAGGUAGUGAUGUUACAGGAGACUGUUCGAGAAGGUCCUCAGUUAC [theeternabot_exclusion_KL_FMN_B_32] | 104
18 | UGACAUUGCUCAGAUACCAGACUUGAGGAACACCCAAGUGCCAAAACGUACUAAAUAAAAGUCCCUUGGCAGCUGAGCAAUGUCU [TheoBX 13] | 91.5
19 | CGAGAGGUCUUGUUUGGAUGUGUUUUAUGGCGAGGACCGGUACGGCCGCCACUCGGGUGAUGUUAGUGAUGUUGAUGUAGUGAUG [dcdmullin] | 91.9
20 | AAAUAAAGCAGUCACCCAGUGAUGUUGGAAGGAGCGUGCGAAAGCACAGGUAGGUCGCCAAAAUAAAAGUGGCUGCGGCAAAGCC [#SwitchBubble 24 #K4Early] | 627
21 | CUUGUACAAGUGAUGUUUGUUAUAUCCGAAGGAGCGUCGUAAUAGACAGGUAGGUCGCGGAGUUAGCUGGUUUUUUUAACAGCUA [JR_Nu_SSArginiA_Sub030] | 621

Row | Sequence | apparent KD of K4 kissing-loop reporter [nM]
22 | AUGCGUUGCACGGCCGCCACUGAUAUUAUGCUUCAGGAUGCUUCUGAAAGUGAUGUUUUCAGAUCCAGGACCGGGUGCCAAGAUU [theeternabot_sameState_KL_Trp_B_17] | 104
23 | GAAUUUGCCGAUCAAAGUGAUGUUUUGGAUACCAGCCAUCAAGCUGGCCCUUGGCAGCCAACGUCGGCUGGCGACCGUGCGGACU [theeternabot_exclusion_KL_Theo_A_50] | 383
24 | AAUACACUGUCGGCCGCCACUCUCGGCUGCAGUGUGCAGGGACAUGAGUGAUGUUUAUGUCGCGUGAGGACCGGGACUGAUGUAU [KL-SSTryp-B1 #analogue] | 326
25 | UUUAACGAGUGAUGUUCGAAGAGUAAGGGUGAGGAUAUCGAUUUUUCGAGAAGGCGCCUCGAAGUGAUACGAAAGUAUCGCUUCG [FMN A 7] | 246
26 | UGCAUGCUAGUAGUGAUGUUACAUGAUGAUACCAGUGCUUUUUUGCACCCUUGGCAGCGUCAUUUUGCAUGCACGUCGAAAGACG | 511
27 | GCAACAUUGGAAGGAUAUCAUUCUGAGUGAUGUUCAGGGUUCAGCUAACGAAAGUUAGUUGUACCAUGAGAAGGUCUAAUGUUGC [Omei KL FMN B SS A v4] | 332
28 | UUCAGGUGUUCGGCCGCCACUCCAGUGAUGUUGGAGUGGCUUCACAAGGGCCAGGACAAUGUAAGGAGGACCGGGAAUAUCUCAG [Onisle] | 97.9
29 | UGCAGUGAUGUUGCUAUUUGUCUUGAUAAACGAGGACCGGUACGGCCGCCACUCGAUUUCUCUCUUAUCGGGUAUGUUGUUUAGU [#21 K4 Tryptophan A Exclusion] | 156
30 | AGAGUCGGCUGUGAUACCAGUCGUAUAACAACAUGUCGCAGUGAUGUUGCGAGAUAGGAUGACCCUUGGCAGCACUCAGUACGAU [Same State Theophylline B GF 7] | 425
31 | UGAUAGGACAGAAGGAGCGGUAGUGAUGUUGCCAAAAGGAUAAGGUGUCAAAAGACACCCUACCAGGUAGGUCGCUGUCCUAUCU | 175
32 | UUUAUAUAGUCGGCCGCCACUGAUUUUUAUAUAUGUUUAUGUUUAUACGAGUGAUGUUCGAUAUACAGGACCGGGACUUUUGUUA [JR_SSTryptoB_Sub017] | 268
33 | GCGUCGCAGGUCGCAGUACCAUCGCGGGAUACCAGCCCUGCUACCGGCCCUUGGCAGCCCGGUUAUCGGUUAGUGAUGUUAGCCA [theeternabot_sameState_KL_Theo_A_44] | 642
34 | GUAUGUGGAAACACGUACUUGUAUCCUAAGCAGGAUAUGCGGAAACGCAGAAGGGCUACCAACGAGUUUAUCCAGUGAUGUUGGA [Ex FMN A 13] | 507
35 | GUUACGCAUGGAAGGAGCGCAUGCUCAGCUAUAAGCUCAGUGAUGUUGAGCAUUUUUUUUUUGCAGGUAGGUCGCCAUGUGUAAC [Ex Arginine B K4 30] | 172
36 | UGGACCUGACUCGAUACGAGUCAAUGAGAUACCAGCCACGAAAGUGGCCCUUGGCAGCUCUGCCAGUGAUGUUGGUCAAGGUCCU [#SwitchBubble 9 #StaticStem] | 1540
37 | AAAUAGGAGUAAAUAAACAAUUUCCUUAGAGAGGAUAUUGGUAAUACAAGAAGGCUCUGUUGGGAGUGAUGUUCCCAUAACGCCU [Exclusion FMN A GF13] | 58.3
38 | ACAGAGUGAUGUUUUGUAAAGAUCUUUGAUACCAGCGCCAGAAAUCGCCCUUGGCAGCAAGCCGUACAUACGUUGAUUGAUCCAC [theeternabot_exclusion_KL_Theo_A_14] | 738
39 | ACGCGCGCGAGUGAUGUUCGGAGCGGCUGGCAGGAUAUGUAGCAAUGCAGAAGGGUCGUGGCGGCGCGGCCGUAAGGCGGCGCCG [#2 Exclusion - FMN A Attempt #14 (HarryS)] | 173
40 | GGACGAGUGAUGUUCGUUAUUAUGCAUUCAGAGGAUAUAGGAUUAGCUAGAAGGCUGAAUCAAUCUUCGAGUGAUGUUCGAGGAU [Same State FMN A GF 10] | 146
41 | UGAUAAUGCAGUGAUGUUGCUAGAAACGAUACCAGUUAAGAAAAGAACCCUUGGCAGCGUAAAGUGCGCUCUAAUGAGUGUGCUU [#10 K4 Theophylline A Same State] | 164
42 | GCAUCCGAUGCAGGAUAUAGAUGAACGAGUGAUGUUUGGAAUUUAUGUCCAAAGCCUACGAUCAGACUAGAAGGGCAUCGGAUGC | 147

Same assay, conditions: Eterna round: R107; input ligand: arginine 13.2 mM

Row | Sequence | apparent KD of K4 kissing-loop reporter [nM]
43 | UAGUCCUAGUGAUCCUUAUCAAGUGGUGGGCGAGGACCGGUACGGCCGCCACUCGAAUAUGCAGUGAUGUUGUAAUCCGGACAAU [Exclusion - Tryptophan A (Freestyle 11)] | 906
44 | GGAUAGGACAGAGGAUAUGGUGCUAGGCAAGAAUAACUUGUCUAGCAAUCCAUGAGGAGUGAUGUUCCAGAAGGCUGUCCUAUCG [FmnBX 3 - #SwitchBubble #StraticStem #DoubleMagnetSystem] | 132
45 | CCAUAUUCGUCGGCCGCCACUAUAAGCCAUCAUACAUUGGCUCUGUGAAAGUGAUGUUUUCUUGAUAGGACCGGGACUGUCAGCA [theeternabot_sameState_KL_Trp_B_24] | 739
46 | UUUUAAUGCAGUGAUGUUGCAAAUAAAACAGAGGAUAUGCAUGGAAGCAGAAGGCUGAUAUGUCGUACUUCGACAUAUUAUAUUU [JR_SSFMNA_Sub012] | 125
47 | AGUCCACUCUAAAGAGUGGACCUAAGGGAUACCAGUGAUGUUGGUCACCCUUGGCAGCCCAGGGCCCGGCGAAUAGCCGGGCCCA [#10 K4 Theophylline A Exclusion] | 99.8
48 | AAAUUUAAUAUAUUUAAUUAAUUAUGUGAUACCAGACAUUUAUAAGUCCCUUGGCAGCACAAUGCAGUGAUGUUGCAUAUAAUAA [JR_SSTheophyA_Sub012] | 103
49 | GUUAUGGACCUGGAUACCAGCUGGUACUAAGUGGGAAAAUGAAAGUGAUGUUUUCGUGCUAGCCCUUGGCAGCCAGCAACCCGCA [XTheo-B6] | 124
50 | UAUUAAUUGUCAGGAUAUCGAAAUCGAGUGAUGUUCGUAAAUUAAUUAUUAUUAAUAAUAUUUAUACGAGAAGGGACAUUAUUUA [JR_SSFMNB_Sub002] | 671
51 | AACGUUUUGUGAAGGAGCGCGAAAAGCAGUGAUGUUGCUUACUUACAAUUUAGAUUUAACACGCAGGUAGGUCGCACAAUACGUA [JR_SSArginiB_Sub016] | 225
52 | GGCAGUGAUGUUGCCAGUGGCGGAUGCGAAGGAGCGCGGUGAGACGCAGGUAGGUCGCGCAUUGAAAUUGCUGUCACUAGGAUGC [whbob_Ex_Arginine_A_2t129] | 262
